The target of test [1] is T1, recombinant cyno Tie2 extracellular domain (cynomolgus monkey, UniProt Q02763 23-748 (human entry)).
T1 construct: also called Recombinant cyno Tie2 ECD; cy Tie2
T1 chain: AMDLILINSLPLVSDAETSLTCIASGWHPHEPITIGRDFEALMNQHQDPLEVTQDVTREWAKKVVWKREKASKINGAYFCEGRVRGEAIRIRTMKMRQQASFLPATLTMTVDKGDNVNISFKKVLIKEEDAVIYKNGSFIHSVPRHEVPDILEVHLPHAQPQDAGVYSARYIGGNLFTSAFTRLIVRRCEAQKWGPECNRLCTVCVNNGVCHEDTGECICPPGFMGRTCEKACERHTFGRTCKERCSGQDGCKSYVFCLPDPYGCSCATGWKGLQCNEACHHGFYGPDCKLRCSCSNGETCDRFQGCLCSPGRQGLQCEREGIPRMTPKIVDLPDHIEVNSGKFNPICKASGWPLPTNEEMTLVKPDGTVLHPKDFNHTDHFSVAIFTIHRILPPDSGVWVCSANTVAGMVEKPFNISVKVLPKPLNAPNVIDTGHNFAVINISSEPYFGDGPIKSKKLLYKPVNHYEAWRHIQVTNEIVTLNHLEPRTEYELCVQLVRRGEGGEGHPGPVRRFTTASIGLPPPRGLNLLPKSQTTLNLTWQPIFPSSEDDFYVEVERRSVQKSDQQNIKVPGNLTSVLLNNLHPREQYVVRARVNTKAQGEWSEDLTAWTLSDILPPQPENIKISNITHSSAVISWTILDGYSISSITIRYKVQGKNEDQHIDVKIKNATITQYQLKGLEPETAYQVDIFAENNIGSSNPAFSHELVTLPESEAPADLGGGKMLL
As to the kind of experiment: SPR, IgG captured, steady state analysis. As for the experimental part: (§1) Binding to recombinant human and cyno Tie2 was analyzed using a high performance multi-cycle kinetics format with a contact time of 60 seconds, a dissociation time of 60 seconds, a flow rate of 100 μl/minute and Tie2 concentrations of 5 μM, 2.5 μM, 1.25 μM, 625 nM, 313 nM and 156 nM. Tie2 concentrations of 5 μM, 2.5 μM and 1.25 μM were injected twice. Results were analyzed using Biacore T200 Evaluation Software v3.0 (GE Life Sciences). Results from all three surface densities were analyzed together using the 1:1 Binding model with multiple Rmax and the RI parameter set to zero.
A general note: Surface plasmon resonance follows binding to a sensor surface in real time, without labels.

Test [2] deals with T2, recombinant human Tie2 extracellular domain (human, UniProt Q02763 23-748).
T2 construct: whole entry named; also called Recombinant human Tie2 ECD; hu Tie2
Kind of test: SPR, IgG captured, steady state analysis. As for the experimental part:
as §1

For a further test, the target named is T3, human Tie1 (human, UniProt P35590 22-759).
T3 construct: extracellular domain
T3 sequence (looked up): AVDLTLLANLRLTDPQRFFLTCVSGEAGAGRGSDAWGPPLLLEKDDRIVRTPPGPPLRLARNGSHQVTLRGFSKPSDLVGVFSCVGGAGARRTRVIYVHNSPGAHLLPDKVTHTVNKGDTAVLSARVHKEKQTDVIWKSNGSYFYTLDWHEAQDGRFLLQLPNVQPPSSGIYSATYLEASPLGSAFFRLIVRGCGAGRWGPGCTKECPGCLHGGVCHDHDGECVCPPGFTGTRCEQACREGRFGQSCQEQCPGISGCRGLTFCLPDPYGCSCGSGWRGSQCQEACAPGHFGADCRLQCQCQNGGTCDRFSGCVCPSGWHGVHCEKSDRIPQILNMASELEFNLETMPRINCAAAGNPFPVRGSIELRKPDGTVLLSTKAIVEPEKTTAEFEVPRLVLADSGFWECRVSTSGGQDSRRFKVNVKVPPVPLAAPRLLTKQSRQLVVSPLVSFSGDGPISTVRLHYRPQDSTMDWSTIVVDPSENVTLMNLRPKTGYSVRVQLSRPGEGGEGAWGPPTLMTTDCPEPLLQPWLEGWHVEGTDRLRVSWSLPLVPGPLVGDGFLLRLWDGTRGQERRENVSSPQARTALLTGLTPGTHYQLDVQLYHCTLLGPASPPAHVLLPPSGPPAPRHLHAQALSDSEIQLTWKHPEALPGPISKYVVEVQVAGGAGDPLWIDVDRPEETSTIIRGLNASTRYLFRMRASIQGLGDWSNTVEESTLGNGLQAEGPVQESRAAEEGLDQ
Kind of test: ELISA: human Tie1 immobilized, serial dilutions of IgG, anti-huFc-HRP. An excerpt: Plates were washed and detected with anti-huFC-conjugated HRP secondary antibody using the methods above.
The binding ELISA was also used with immobilized Tie1 protein to assess Tie1 binding.

The target in a further test is T4, rat Tie2ECD.flag (rat, UniProt A0ABK0L6J5 19-740).
T4 construct: extracellular domain; also called rTie2.flag; not shown: C-terminal Flag tag
As to the kind of experiment: Biacore, hIgG captured, 25C. Summed up: (§2)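 Anti-Tie2 hIgGs captured on an anti-human Fc CM5 surface; human or rat Tie2ECD.flag binding monitored at 25 °C by multi-cycle kinetics, with 3 M MgCl₂ regeneration. Monovalent affinities from a 1:1 binding model fit.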

The next test concerns the target T5, human Tie2ECD.flag (human, UniProt Q02763 23-748).
T5 construct: also called hTie2.flag; not shown: C-terminal Flag tag
As to the kind of experiment: Biacore, hIgG captured, 25C. Put shortly: as §2

T5 sequence (Q02763 23-748 limits assumed): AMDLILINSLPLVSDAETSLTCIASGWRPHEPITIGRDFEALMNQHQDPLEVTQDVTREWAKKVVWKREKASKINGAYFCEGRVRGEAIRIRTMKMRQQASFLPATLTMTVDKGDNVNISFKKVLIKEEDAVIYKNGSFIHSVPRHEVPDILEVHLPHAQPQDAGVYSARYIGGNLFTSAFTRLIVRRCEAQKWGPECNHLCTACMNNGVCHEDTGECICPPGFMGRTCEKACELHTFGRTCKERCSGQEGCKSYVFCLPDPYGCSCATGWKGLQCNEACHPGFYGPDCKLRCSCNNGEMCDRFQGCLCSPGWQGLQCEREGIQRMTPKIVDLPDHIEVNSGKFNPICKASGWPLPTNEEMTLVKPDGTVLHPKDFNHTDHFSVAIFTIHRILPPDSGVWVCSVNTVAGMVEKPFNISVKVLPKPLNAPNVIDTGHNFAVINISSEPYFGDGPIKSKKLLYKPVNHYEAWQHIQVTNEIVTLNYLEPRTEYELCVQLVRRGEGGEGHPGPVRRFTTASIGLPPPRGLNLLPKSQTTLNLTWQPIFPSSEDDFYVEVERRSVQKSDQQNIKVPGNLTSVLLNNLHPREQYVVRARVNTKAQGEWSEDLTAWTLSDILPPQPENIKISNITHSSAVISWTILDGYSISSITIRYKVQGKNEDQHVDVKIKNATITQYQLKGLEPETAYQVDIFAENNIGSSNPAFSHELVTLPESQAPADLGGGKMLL

B1: Tie2.1 (antibody, human IgG1, V domains shown)
VH: EVQLVESGGGLVQPGGSLRLSCAASGFTFSNTDISWVRQAPGKGLEWVGRISPSDGNTYYADSVKGRFTISADTSKNTAYLQMNSLRAEDTAVYYCARRTRWASWAMDYWGQGTLVTVSS
VL: DIQMTQSPSSLSASVGDRVTITCRASQDVSTAVAWYQQKPGKAPKLLIYSASFLYSGVPSRFSGSGSGTDFTLTISSLQPEDFATYYCQQSYTTPPTFGQGTKVEIKR
notes: human IgG1 in all later assays; also called Ab1; Tie2.1.M100c
For the molecule B1, the dissociation constant (Kd) (commonly the equilibrium constant for the complex coming apart) in test [1] was found to be 3000 nM; in test [2], 3000 nM; with rat Tie2ECD.flag, 1600 nM; with human Tie2ECD.flag, 1200 nM. Besides, the binding result in the test with human Tie1 was “no binding (tested: 200 nM)”.

(Values after patent US20210332142A1 (Genentech, published 2021).)
